Positions count from the first letter of the chain named.
T1: Ep-CAM (UniProt P16422 24-265, limits assumed)
T1 construct: Amine coupled to a CM5 chip in the Biacore assays
T1 sequence (looked up): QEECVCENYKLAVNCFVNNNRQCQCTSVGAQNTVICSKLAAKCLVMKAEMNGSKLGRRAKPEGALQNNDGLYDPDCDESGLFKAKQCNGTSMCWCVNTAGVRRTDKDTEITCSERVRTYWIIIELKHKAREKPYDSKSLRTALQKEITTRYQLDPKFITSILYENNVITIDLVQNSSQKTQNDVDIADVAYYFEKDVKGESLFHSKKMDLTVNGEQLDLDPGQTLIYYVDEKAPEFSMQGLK

B1: ING-1 light chain L99Y (Fab, V domains shown)
VH: QIQLVQSGPELKKPGETVKISCKASGYTFTKYGMNWVKQAPGKGLKWMGWINTYTEEPTYGDDFKGRFAFSLETSASTANLQINNLKSEDTATYFCARFGSAVDYWGQGTSVTVSS
VL: DIVMTQAAFSNPVTLGTSGSISCRSSKSLLHSNGITYLYWYLQKPGQSPQLLIYQMSNLASGVPDRFSSSGSGTDFTLRISRVEAEDVGVYYCAQNLEYPRTFGGGTKLEMKR
notes: Fab, periplasmic extract
B2: ING-1 light chain Y54D (Fab, V domains shown)
VH: B1 VH
VL: B1 VL with Y54D, Y99L
notes: Fab, periplasmic extract
B3: ING-1 light chain R101F (Fab, V domains shown)
VH: B1 VH
VL: B1 VL with Y99L, R101F
notes: Fab, periplasmic extract
B4: ING-1 light chain P100N (Fab, V domains shown)
VH: B1 VH
VL: B1 VL with Y99L, P100N
notes: Fab, periplasmic extract
B5: ING-1 light chain R101D (Fab, V domains shown)
VH: B1 VH
VL: B1 VL with Y99L, R101D
notes: Fab, periplasmic extract
B6: ING-1 light chain R101Y (Fab, V domains shown)
VH: B1 VH
VL: B1 VL with Y99L, R101Y
notes: Fab, periplasmic extract
B7: ING-1 light chain R101H (Fab, V domains shown)
VH: B1 VH
VL: B1 VL with Y99L, R101H
notes: Fab, periplasmic extract
B8: ING-1 light chain R101S (Fab, V domains shown)
VH: B1 VH
VL: B1 VL with Y99L, R101S
notes: Fab, periplasmic extract
B9: ING-1 light chain R101Q (Fab, V domains shown)
VH: B1 VH
VL: B1 VL with Y99L, R101Q
notes: Fab, periplasmic extract
B10: ING-1 light chain Y54H (Fab, V domains shown)
VH: B1 VH
VL: B1 VL with Y54H, Y99L
notes: Fab, periplasmic extract
B11: ING-1 light chain N33K (Fab, V domains shown)
VH: B1 VH
VL: B1 VL with N33K, Y99L
notes: Fab, periplasmic extract
B12: ING-1 light chain T36D (Fab, V domains shown)
VH: B1 VH
VL: B1 VL with T36D, Y99L
notes: Fab, periplasmic extract
B13: ING-1 light chain Y37E (Fab, V domains shown)
VH: B1 VH
VL: B1 VL with Y37E, Y99L
notes: Fab, periplasmic extract
B14: ING-1 light chain N33Y (Fab, V domains shown)
VH: B1 VH
VL: B1 VL with N33Y, Y99L
notes: Fab, periplasmic extract
B15: ING-1 light chain Y37S (Fab, V domains shown)
VH: B1 VH
VL: B1 VL with Y37S, Y99L
notes: Fab, periplasmic extract
B16: ING-1 light chain S57Q (Fab, V domains shown)
VH: B1 VH
VL: B1 VL with S57Q, Y99L
notes: Fab, periplasmic extract
B17: ING-1 light chain R101W (Fab, V domains shown)
VH: B1 VH
VL: B1 VL with Y99L, R101W
notes: Fab, periplasmic extract
B18: ING-1 light chain Y54S (Fab, V domains shown)
VH: B1 VH
VL: B1 VL with Y54S, Y99L
notes: Fab, periplasmic extract
B19: ING-1 light chain R101K (Fab, V domains shown)
VH: B1 VH
VL: B1 VL with Y99L, R101K
notes: Fab, periplasmic extract
B20: ING-1 light chain P100H (Fab, V domains shown)
VH: B1 VH
VL: B1 VL with Y99L, P100H
notes: Fab, periplasmic extract
B21: ING-1 light chain P100R (Fab, V domains shown)
VH: B1 VH
VL: B1 VL with Y99L, P100R
notes: Fab, periplasmic extract
B22: ING-1 light chain Q55D (Fab, V domains shown)
VH: B1 VH
VL: B1 VL with Q55D, Y99L
notes: Fab, periplasmic extract
B23: ING-1 light chain Y37N (Fab, V domains shown)
VH: B1 VH
VL: B1 VL with Y37N, Y99L
notes: Fab, periplasmic extract
B24: ING-1 light chain P100E (Fab, V domains shown)
VH: B1 VH
VL: B1 VL with Y99L, P100E
notes: Fab, periplasmic extract
B25: ING-1 light chain S28N (Fab, V domains shown)
VH: B1 VH
VL: B1 VL with S28N, Y99L
notes: Fab, periplasmic extract
B26: ING-1 light chain R101E (Fab, V domains shown)
VH: B1 VH
VL: B1 VL with Y99L, R101E
notes: Fab, periplasmic extract
B27: ING-1 light chain P100D (Fab, V domains shown)
VH: B1 VH
VL: B1 VL with Y99L, P100D
notes: Fab, periplasmic extract
B28: ING-1 light chain Y54N (Fab, V domains shown)
VH: B1 VH
VL: B1 VL with Y54N, Y99L
notes: Fab, periplasmic extract
B29: ING-1 light chain Y37K (Fab, V domains shown)
VH: B1 VH
VL: B1 VL with Y37K, Y99L
notes: Fab, periplasmic extract
B30: ING-1 light chain R101N (Fab, V domains shown)
VH: B1 VH
VL: B1 VL with Y99L, R101N
notes: Fab, periplasmic extract
B31: ING-1 light chain Y37Q (Fab, V domains shown)
VH: B1 VH
VL: B1 VL with Y37Q, Y99L
notes: Fab, periplasmic extract
B32: ING-1 light chain Y54R (Fab, V domains shown)
VH: B1 VH
VL: B1 VL with Y54R, Y99L
notes: Fab, periplasmic extract
B33: ING-1 light chain T36R (Fab, V domains shown)
VH: B1 VH
VL: B1 VL with T36R, Y99L
notes: Fab, periplasmic extract
B34: ING-1 light chain P100Q (Fab, V domains shown)
VH: B1 VH
VL: B1 VL with Y99L, P100Q
notes: Fab, periplasmic extract
B35: ING-1 light chain S32N (Fab, V domains shown)
VH: B1 VH
VL: B1 VL with S32N, Y99L
notes: Fab, periplasmic extract
B36: ING-1 light chain Q55E (Fab, V domains shown)
VH: B1 VH
VL: B1 VL with Q55E, Y99L
notes: Fab, periplasmic extract
B37: ING-1 light chain S57Y (Fab, V domains shown)
VH: B1 VH
VL: B1 VL with S57Y, Y99L
notes: Fab, periplasmic extract
B38: ING-1 light chain Y54E (Fab, V domains shown)
VH: B1 VH
VL: B1 VL with Y54E, Y99L
notes: Fab, periplasmic extract
B39: ING-1 light chain P100K (Fab, V domains shown)
VH: B1 VH
VL: B1 VL with Y99L, P100K
notes: Fab, periplasmic extract
B40: ING-1 light chain P100S (Fab, V domains shown)
VH: B1 VH
VL: B1 VL with Y99L, P100S
notes: Fab, periplasmic extract

Molecular target: T1, Ep-CAM
Test: Biacore, Fab periplasmic extract

**Q.** With B1 as the binder, how does the “fold difference in affinity vs parental ING-1” value (shortened to “fold difference in affinity”) read?
**A.** The value was 1 fold.

**Q.** With B2 as the binder, how does the “fold difference in affinity” value read?
**A.** Its value is 0.03 fold.

**Q.** Does B3 bind?
**A.** Result: no binding

**Q.** With B4 as the binder, how does the “fold difference in affinity” value read?
**A.** Its value is 0.05 fold.

**Q.** Does B5 bind?
**A.** Result: no binding

**Q.** Does B6 bind?
**A.** Result: no binding

**Q.** Does B7 bind?
**A.** Result: no binding

**Q.** Does B8 bind?
**A.** Result: no binding

**Q.** Does B9 bind?
**A.** Result: no binding

**Q.** Does B10 bind?
**A.** Result: no binding

**Q.** B11 was tested. Which “fold difference in affinity” value did it give?
**A.** The value was 0.7 fold.

**Q.** How did the “fold difference in affinity” value turn out when B12 was run?
**A.** Its value is 0.05 fold.

**Q.** With B13 as the binder, how does the “fold difference in affinity” value read?
**A.** Its value is 0.01 fold.

**Q.** Which “fold difference in affinity” value does the source give for B14 here?
**A.** Its value is 0.8 fold.

**Q.** For B15, which “fold difference in affinity” value is on record?
**A.** Its value is 0.09 fold.

**Q.** Does B16 bind?
**A.** Result: no binding

**Q.** Does B17 bind?
**A.** Result: no binding

**Q.** Which “fold difference in affinity” value does the source give for B18 here?
**A.** Its value is 0.9 fold.

**Q.** With B19 as the binder, how does the “fold difference in affinity” value read?
**A.** The value was 0.04 fold.

**Q.** With B20 as the binder, how does the “fold difference in affinity” value read?
**A.** The value was 0.05 fold.

**Q.** For B21, which “fold difference in affinity” value is on record?
**A.** Its value is 0.05 fold.

**Q.** How did the “fold difference in affinity” value turn out when B22 was run?
**A.** Its value is 0.05 fold.

**Q.** For B23, which “fold difference in affinity” value is on record?
**A.** Its value is 0.06 fold.

**Q.** With B24 as the binder, how does the “fold difference in affinity” value read?
**A.** The value was 0.06 fold.

**Q.** Does B25 bind?
**A.** Result: no binding

**Q.** Does B26 bind?
**A.** Result: no binding

**Q.** For B27, which “fold difference in affinity” value is on record?
**A.** The value was 0.02 fold.

**Q.** Does B28 bind?
**A.** Result: no binding

**Q.** For B29, which “fold difference in affinity” value is on record?
**A.** Its value is 0.02 fold.

**Q.** Does B30 bind?
**A.** Result: no binding

**Q.** B31 was tested. Which “fold difference in affinity” value did it give?
**A.** The value was 0.02 fold.

**Q.** Does B32 bind?
**A.** Result: no binding

**Q.** Does B33 bind?
**A.** Result: no binding

**Q.** How did the “fold difference in affinity” value turn out when B34 was run?
**A.** The value was 0.04 fold.

**Q.** Does B35 bind?
**A.** Result: no binding

**Q.** Which “fold difference in affinity” value does the source give for B36 here?
**A.** Its value is 0.05 fold.

**Q.** Does B37 bind?
**A.** Result: no binding

**Q.** For B38, which “fold difference in affinity” value is on record?
**A.** The value was 0.05 fold.

**Q.** With B39 as the binder, how does the “fold difference in affinity” value read?
**A.** The value was 0.03 fold.

**Q.** Which “fold difference in affinity” value does the source give for B40 here?
**A.** Its value is 0.06 fold.

Reference: US20110118131A1 (published 2011)
